Consider two sequences from patent US9327008B2, “Cell-permeant peptide-based inhibitor of kinases” (Purdue Research Foundation, priority 2008, dated 2016).

What all share (assay type): biochemical
One assay has as its target T1, MEK1 (Homo sapiens, UniProt Q02750).
T1 construct: purchased Millipore (radiometric assay service)
The assay can be described thus: Millipore radiometric kinase activity assay, MEK1 (h). As for the experimental part: (§1) A commercial radiometric assay service (Millipore, Billerica, Mass.) was used to test the specificity and potency of peptides containing a coupled transduction domain and therapeutic domain, hereinafter “complete peptides”). In these assays, if the kinase is not inhibited by an inhibitor peptide, a positively charged substrate is phosphorylated with a radiolabeled phosphate group from an ATP.
The reaction is initiated by the addition of the MgATP. After incubation for 40 minutes at room temperature, 5 μL of this incubation mix is used to initiate a MAPK2 (m) assay.
(§2) IC50 values for inhibitor peptides were determined using Millipore's IC50Profiler Express service. The IC50 value was estimated from a 10-point curve of one-half log dilutions. For peptides tested for specificity, the concentration of the peptides that inhibited approximately 95% of MK2 activity was chosen to profile against a battery of kinases related to MK2, cell viability, or human disease from MilliporeKinaseProfiler service. In both assays, compounds were supplied in dimethylsulfoxide (DMSO). Every kinase activity measurement was conducted in duplicate.
(§3) Therapeutic inhibitor peptides were assayed for activity against human kinases related to MK2, cell viability, or human disease. The assays were performed using concentrations of therapeutic inhibitor peptides that yielded 2% to 8% of normal MK2 activity. Error is reported as the standard deviation between 2 samples, and “c” is rat AMPK whereas all other kinases used are human kinases.

For another assay, the target named is T2, CDK1/cyclinB (Homo sapiens, UniProt P06493).
T2 construct: purchased Millipore (assay service)
T2 sequence (P06493 whole entry): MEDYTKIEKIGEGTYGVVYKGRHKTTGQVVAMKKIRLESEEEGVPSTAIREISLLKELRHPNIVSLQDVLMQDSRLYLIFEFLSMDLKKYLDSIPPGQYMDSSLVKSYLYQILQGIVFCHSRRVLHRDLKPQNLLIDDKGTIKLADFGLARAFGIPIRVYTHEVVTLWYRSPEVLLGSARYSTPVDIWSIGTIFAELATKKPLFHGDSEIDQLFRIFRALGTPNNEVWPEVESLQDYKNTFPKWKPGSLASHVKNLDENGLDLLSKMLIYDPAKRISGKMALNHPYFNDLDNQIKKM
T2 sequence (P14635 whole entry partner): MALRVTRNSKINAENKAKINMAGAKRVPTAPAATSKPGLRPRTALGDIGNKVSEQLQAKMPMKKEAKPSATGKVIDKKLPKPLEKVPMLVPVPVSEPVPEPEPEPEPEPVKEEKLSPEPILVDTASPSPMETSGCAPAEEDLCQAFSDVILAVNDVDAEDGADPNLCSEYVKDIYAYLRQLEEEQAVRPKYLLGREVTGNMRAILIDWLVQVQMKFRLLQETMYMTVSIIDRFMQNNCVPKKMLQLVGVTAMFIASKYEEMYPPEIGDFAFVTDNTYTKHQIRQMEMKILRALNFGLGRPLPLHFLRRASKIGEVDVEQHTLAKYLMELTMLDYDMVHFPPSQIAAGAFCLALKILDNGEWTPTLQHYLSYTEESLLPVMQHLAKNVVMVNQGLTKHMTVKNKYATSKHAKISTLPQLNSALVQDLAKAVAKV
The assay can be described thus: Millipore radiometric kinase activity assay, CDK1/cyclinB (h). Here is the method:
as §1
(§4) In a final reaction volume of 25 μL, CDK1/cyclinB (h) (5-10 mU) is incubated with 8 mM MOPS pH 7.0, 0.2 mM EDTA, 0.1 mg/mL histone H1, 10 mM MgAcetate and [γ-^33P-ATP] (specific activity approx. 500 cpm/pmol, concentration as required). The reaction is initiated by the addition of the MgATP mix. After incubation for 40 minutes at room temperature, the reaction is stopped by the addition of 5 μL of a 3% phosphoric acid solution. 10 μL of the reaction is then spotted onto a P30 filtermat and washed three times for 5 minutes in 75 mM phosphoric acid and once in methanol prior to drying and scintillation counting.
as §2, §3

The target of another assay is T3, Syk (Homo sapiens, UniProt P43405).
T3 construct: purchased Millipore (radiometric assay service)
Description: Millipore radiometric kinase activity assay, Syk (h). Here is the method: as §1
In a final reaction volume of 25 μL, Syk (h) (5-10 mU) is incubated with 50 mM Tris pH 7.5, 0.1 mM EGTA, 0.1 mM Na3VO4, 0.1% β-mercaptoethanol, 0.1 mg/mL poly(Glu, Tyr) 4:1, 10 mM MgAcetate and [γ-^33PATP] (specific activity approx. 500 cpm/pmol, concentration as required). The reaction is initiated by the addition of the MgATP mix. After incubation for 40 minutes at room temperature, the reaction is stopped by the addition of 5 μL of a 3% phosphoric acid solution. 10 μL of the reaction is then spotted onto a Filtermat A and washed three times for 5 minutes in 75 mM phosphoric acid and once in methanol prior to drying and scintillation counting.
as §2, §3

Another assay has as its target T4, EphA2 (Homo sapiens, UniProt P29317).
T4 construct: purchased Millipore (assay service)
Description: Millipore radiometric kinase activity assay, EphA2 (h). As for the experimental part: as §1
as §4, with “EphA2” for “CDK1/cyclinB”, “poly(Glu, Tyr) 4:1,” for “histone H1,”, “Filtermat A” for “P30 filtermat”
as §2, §3

The next assay concerns the target T5, Flt3 (Homo sapiens, UniProt P36888).
T5 construct: purchased Millipore (assay service)
T5 sequence (P36888 27-993): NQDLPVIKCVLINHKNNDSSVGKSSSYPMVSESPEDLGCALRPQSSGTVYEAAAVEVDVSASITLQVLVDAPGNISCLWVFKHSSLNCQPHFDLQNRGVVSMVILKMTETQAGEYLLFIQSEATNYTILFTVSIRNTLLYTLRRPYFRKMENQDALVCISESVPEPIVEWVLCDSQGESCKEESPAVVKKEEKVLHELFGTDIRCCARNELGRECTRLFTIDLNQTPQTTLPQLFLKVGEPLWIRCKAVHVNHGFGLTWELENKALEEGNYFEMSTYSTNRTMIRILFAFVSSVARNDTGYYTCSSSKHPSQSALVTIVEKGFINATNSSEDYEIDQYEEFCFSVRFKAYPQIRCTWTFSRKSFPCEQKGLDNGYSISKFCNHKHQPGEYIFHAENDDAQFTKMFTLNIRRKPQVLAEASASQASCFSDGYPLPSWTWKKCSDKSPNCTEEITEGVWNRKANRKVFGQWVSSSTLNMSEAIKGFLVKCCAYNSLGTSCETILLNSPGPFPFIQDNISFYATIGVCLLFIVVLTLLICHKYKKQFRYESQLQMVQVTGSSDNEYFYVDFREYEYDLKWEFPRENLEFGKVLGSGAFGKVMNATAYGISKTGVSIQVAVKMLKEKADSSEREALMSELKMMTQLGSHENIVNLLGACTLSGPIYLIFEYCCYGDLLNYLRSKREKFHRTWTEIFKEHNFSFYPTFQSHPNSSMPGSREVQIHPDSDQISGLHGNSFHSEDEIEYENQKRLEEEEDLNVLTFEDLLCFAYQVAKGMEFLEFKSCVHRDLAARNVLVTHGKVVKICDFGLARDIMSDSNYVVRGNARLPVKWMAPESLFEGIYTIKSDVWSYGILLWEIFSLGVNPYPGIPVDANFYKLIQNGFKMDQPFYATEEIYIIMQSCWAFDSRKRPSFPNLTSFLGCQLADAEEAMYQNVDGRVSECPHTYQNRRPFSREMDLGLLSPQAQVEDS
Description: Millipore radiometric kinase activity assay, Flt3 (h). As for the experimental part:
as §1
as §4, with “Flt3” for “CDK1/cyclinB”, “50 μM […] [SEQ ID NO: 48],” for “0.1 mg/mL histone H1,”
as §2, §3

T4 sequence (P29317 24-976): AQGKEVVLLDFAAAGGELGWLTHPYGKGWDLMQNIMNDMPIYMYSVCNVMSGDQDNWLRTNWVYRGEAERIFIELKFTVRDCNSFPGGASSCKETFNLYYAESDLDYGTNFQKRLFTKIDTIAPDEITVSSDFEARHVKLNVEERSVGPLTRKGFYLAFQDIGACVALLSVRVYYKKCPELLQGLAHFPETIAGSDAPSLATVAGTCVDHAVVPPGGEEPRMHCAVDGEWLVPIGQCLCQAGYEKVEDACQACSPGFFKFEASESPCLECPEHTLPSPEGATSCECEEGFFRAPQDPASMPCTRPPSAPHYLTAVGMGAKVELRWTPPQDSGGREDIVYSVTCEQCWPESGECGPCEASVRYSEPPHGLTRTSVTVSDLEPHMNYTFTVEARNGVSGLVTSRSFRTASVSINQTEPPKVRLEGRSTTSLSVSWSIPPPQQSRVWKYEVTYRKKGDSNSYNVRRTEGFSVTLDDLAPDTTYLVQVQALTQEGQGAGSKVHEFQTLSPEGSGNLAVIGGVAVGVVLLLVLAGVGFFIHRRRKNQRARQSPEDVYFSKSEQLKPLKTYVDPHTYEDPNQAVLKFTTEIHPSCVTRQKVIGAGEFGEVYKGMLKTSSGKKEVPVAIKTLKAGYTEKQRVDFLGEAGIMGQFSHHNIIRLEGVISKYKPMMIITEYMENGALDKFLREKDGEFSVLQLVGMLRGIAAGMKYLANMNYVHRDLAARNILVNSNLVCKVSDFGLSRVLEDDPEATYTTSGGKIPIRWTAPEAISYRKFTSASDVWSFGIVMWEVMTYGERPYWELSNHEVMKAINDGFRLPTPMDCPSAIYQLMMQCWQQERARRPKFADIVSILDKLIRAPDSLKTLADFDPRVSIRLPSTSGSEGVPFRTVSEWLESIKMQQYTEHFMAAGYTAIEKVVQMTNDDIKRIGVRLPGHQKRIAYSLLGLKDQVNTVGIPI

Regarding KAFAKLAARLYRKALARQLGVAA, the “MEK1 Kinase Activity (%) (+SD %)” value in the assay with MEK1 (peptide 100 μM) is recorded as 66 (0) %. For the same sequence, in the assay with CDK1/cyclinB (peptide 100 μM), the “CDK1/cyclin B Kinase Activity (%) (+SD %)” value is given as 55 (3) %. For the same sequence, the “Syk Kinase Activity (%) (+SD %)” value with Syk (peptide 100 μM) is reported as 4 (4) %. Moreover, the “EphA2 Kinase Activity (%) (+SD %)” value with EphA2 (peptide 100 μM) is 22 (7) %. Moreover, the “Flt3 Kinase Activity (%) (+SD %)” value with Flt3 (peptide 100 μM) is 20 (3) %.

On to WLRRIKAWLRRIKALNRQLGVAA, for which the “MEK1 Kinase Activity (%) (+SD %)” value with MEK1 (peptide 30 μM) was 14 (2) %; with MEK1 (peptide 100 μM) it was 68 (2) %. Moreover, the results for the “CDK1/cyclin B Kinase Activity (%) (+SD %)” value in the assay with CDK1/cyclinB (peptide 30 μM) and in the assay with CDK1/cyclinB (peptide 100 μM) were 17 (0) % and 36 (2) %, respectively. For the same sequence, the “Syk Kinase Activity (%) (+SD %)” value in the assay with Syk (peptide 30 μM) is recorded as 19 (3) %; in the assay with Syk (peptide 100 μM) it was 38 (9) %. For the same sequence, the “EphA2 Kinase Activity (%) (+SD %)” value is listed as 38 (4) % with EphA2 (peptide 30 μM) and 32 (2) % with EphA2 (peptide 100 μM). Moreover, the “Flt3 Kinase Activity (%) (+SD %)” value with Flt3 (peptide 30 μM) is 38 (1) %; in the assay with Flt3 (peptide 100 μM) it was 14 (0) %.
